Measurements published in patent publication US20240317834A1, “COMPOSITIONS AND METHODS FOR NEUROLOGICAL DISEASES” (CODA BIOTHERAPEUTICS, INC., priority 2020, published 2024).
Substitutions are numbered along the chain they refer to. Names may count otherwise.

What was measured:
Lenti-X 293T cells = assay: YFP fluorescence quenching anion reporter plate reader assay of engineered receptors stimulated with acetylcholine or a non-native ligand; type: cell-based; conditions: for percent quench of YFP fluorescence, 30 nM TC-6683: TC-6683 30 nM; for percent quench of YFP fluorescence, 300 nM TC-6683: TC-6683 300 nM; for percent quench of YFP fluorescence, 3 uM TC-6683: TC-6683 3 uM; for percent quench of YFP fluorescence, 30 uM TC-6683: TC-6683 30 uM; for percent quench of YFP fluorescence, 100 uM TC-6683: TC-6683 100 uM; for percent quench of YFP fluorescence, 100 uM ach: acetylcholine 100 uM; for percent quench of YFP fluorescence, 300 uM ach: acetylcholine 300 uM; for percent quench of YFP fluorescence, 500 uM ach: acetylcholine 500 uM; for percent quench of YFP fluorescence, 1 mM ach: acetylcholine 1 mM; for percent quench of YFP fluorescence, 3 mM ach: acetylcholine 3 mM; for percent quench of YFP fluorescence, 10 mM ach: acetylcholine 10 mM
Outline: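 Lenti-X 293T cells carrying a YFP anion reporter were transiently transfected with channel DNA and assayed the next day in HEPES-buffered ECS at pH 7.2. Ligand (acetylcholine or non-native ligand) was added in NaI-substituted ECS. Percent quench was the mean of the last 10 s relative to the 15 s pre-addition baseline.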

rat DRG neurons = assay: Rheobase shift and evoked action potentials in rat DRG neurons (current clamp); type: cell-based; conditions: for Rheobase Shift; Rat DRG Neurons, Baseline: no ligand
Outline: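 Rat DRG neurons expressing engineered receptors, whole-cell current clamp at RT. ECS at pH 7.3; K-gluconate internal at pH 7.2. 500 ms steps from −200 to 700 pA with and without ligand. Rheobase taken as the smallest depolarising step that fires an action potential; input resistance from negative steps.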

B1: CODA1055: engineered chimeric LGIC receptor, R101W, Y115E, Y210W in SEQ ID NO: 33 (protein)
chain: MRCSPGGVWLALAASLLHVSLQGEFQRKLYKELVKNYNPLERPVANDSQPLTVYFSLSLLQIMDVDEKNQVLTTNIWLQMSWTDHYLQWNVSEYPGVKTVWFPDGQIWKPDILLENSADERFDATFHTNVLVNSSGHCQYLPPGIFKSSCPMDLKNFPMDVQTCKLKFGSWSYGGWSLDLQMQEADISGYIPNGEWDLVGIPGKRSERFWECCKEPYPDVTFTVTMRRRMGYYLIQMYIPSLLIVILSWISFWINMDAAPARVGLGITTVLTMTTQSSGSRASLPKVSYVKAIDIWMAVCLLFVFSALLEYAAVNFVSRQHKELLRFRRKRRHHKSPMLNLFQEDEAGEGRFNFSAYGMGPACLQAKDGISVKGANNSNTTNPPPAPSKSPEEMRKLFIQRAKKIDKISRIGFPMAFLIFNMFYWIIYKIVRREDVHNQ
modifications: synthetic sequence of chimeric LGIC
For B1, the “YFP fluorescence quenching using CNL001” value (Lenti-X 293T cells; 1 nM CNL001, first column) was −12.889%, the “YFP fluorescence quenching using CNL001” value (Lenti-X 293T cells; 1 nM CNL001, second column) was −13.295% and the “YFP fluorescence quenching using TC-5619/Bradanicline” value (Lenti-X 293T cells; 1 nM brd) was −8.113%. For the same molecule, the “YFP fluorescence quenching using TC-5619/Bradanicline” value (Lenti-X 293T cells; 3 nM brd) was −11.136%, the “YFP fluorescence quenching using Varenicline” value (Lenti-X 293T cells; 3 nM var, first column) was 0.468 and the “YFP fluorescence quenching using Varenicline” value (Lenti-X 293T cells; 3 nM var, second column) was −10.015. For the same molecule, the “YFP fluorescence quenching using CNL001” value (Lenti-X 293T cells; 10 nM CNL001, first column) was −10.401%, the “YFP fluorescence quenching using CNL001” value (Lenti-X 293T cells; 10 nM CNL001, second column) was −7.981% and the “YFP fluorescence quenching using TC-5619/Bradanicline” value (Lenti-X 293T cells; 10 nM brd) was 38.755%. For the same molecule, the “YFP fluorescence quenching using TC-5619/Bradanicline” value (Lenti-X 293T cells; 30 nM brd) was 39.111%, the “YFP fluorescence quenching using Varenicline” value (Lenti-X 293T cells; 30 nM var, first column) was −15.532 and the “YFP fluorescence quenching using Varenicline” value (Lenti-X 293T cells; 30 nM var, second column) was −14.462. For the same molecule, the “YFP fluorescence quenching using CNL001” value (Lenti-X 293T cells; 50 nM CNL001, first column) was −1.972%, the “YFP fluorescence quenching using CNL001” value (Lenti-X 293T cells; 50 nM CNL001, second column) was −1.661% and the “YFP fluorescence quenching using ABT-126” value (Lenti-X 293T cells; 50 nM abt) was −21.36%. The “YFP fluorescence quenching using CNL001” value (Lenti-X 293T cells; 100 nM CNL001, first column) was 0.277%, the “YFP fluorescence quenching using CNL001” value (Lenti-X 293T cells; 100 nM CNL001, second column) was 4.325% and the “YFP fluorescence quenching using ABT-126” value (Lenti-X 293T cells; 100 nM abt) was −22.28%. For the same molecule, the “YFP fluorescence quenching using TC-5619/Bradanicline” value (Lenti-X 293T cells; 100 nM brd) was 61.378%, the “YFP fluorescence quenching using ABT-126” value (Lenti-X 293T cells; 300 nM abt) was −14.63% and the “YFP fluorescence quenching using TC-5619/Bradanicline” value (Lenti-X 293T cells; 300 nM brd) was 52.398%. The “YFP fluorescence quenching using Varenicline” value (Lenti-X 293T cells; 300 nM var, first column) was −17.027, the “YFP fluorescence quenching using Varenicline” value (Lenti-X 293T cells; 300 nM var, second column) was −15.59 and the “YFP fluorescence quenching using Varenicline” value (Lenti-X 293T cells; 500 nM var, first column) was −13.343. The “YFP fluorescence quenching using Varenicline” value (Lenti-X 293T cells; 500 nM var, second column) was −10.702, the “YFP fluorescence quenching using CNL001” value (Lenti-X 293T cells; 1 uM CNL001, first column) was 2.88% and the “YFP fluorescence quenching using CNL001” value (Lenti-X 293T cells; 1 uM CNL001, second column) was 3.259%. For the same molecule, the “YFP fluorescence quenching using ABT-126” value (Lenti-X 293T cells; 1 uM abt) was −7.34%, the “YFP fluorescence quenching using Varenicline” value (Lenti-X 293T cells; 1 uM var, first column) was −6.604 and the “YFP fluorescence quenching using Varenicline” value (Lenti-X 293T cells; 1 uM var, second column) was −7.612. The “percent quench of YFP fluorescence, 30 nM TC-6683” value (Lenti-X 293T cells) was −30.056%, the “percent quench of YFP fluorescence, 300 nM TC-6683” value (Lenti-X 293T cells) was −30.801% and the “percent quench of YFP fluorescence, 3 uM TC-6683” value (Lenti-X 293T cells) was −25.558%. For the same molecule, the “percent quench of YFP fluorescence, 30 uM TC-6683” value (Lenti-X 293T cells) was −18.295%, the “percent quench of YFP fluorescence, 100 uM TC-6683” value (Lenti-X 293T cells) was −17.554% and the “percent quench of YFP fluorescence, 100 uM ach” value (Lenti-X 293T cells) was −15.63%. For the same molecule, the “percent quench of YFP fluorescence, 300 uM ach” value (Lenti-X 293T cells) was −12.05%, the “percent quench of YFP fluorescence, 500 uM ach” value (Lenti-X 293T cells) was −12.87% and the “percent quench of YFP fluorescence, 1 mM ach” value (Lenti-X 293T cells) was −11.55%. The “percent quench of YFP fluorescence, 3 mM ach” value (Lenti-X 293T cells) was 12.68%, the “percent quench of YFP fluorescence, 10 mM ach” value (Lenti-X 293T cells) was 37.58% and the “Rheobase Shift; Rat DRG Neurons, +TC-5619 @ EC90” value (rat DRG neurons) was 562 ± 35 pA. For the same molecule, the “Rheobase Shift; Rat DRG Neurons, Baseline” value (rat DRG neurons) was 83 ± 7 pA.

B2: CODA1056: engineered chimeric LGIC receptor, R101F, Y115E, Y210W in SEQ ID NO: 33 (protein)
chain: B1 chain with W101F
modifications: synthetic sequence of chimeric LGIC
With B2 the “YFP fluorescence quenching using CNL001” value (Lenti-X 293T cells; 1 nM CNL001, first column) was −8.104%, the “YFP fluorescence quenching using CNL001” value (Lenti-X 293T cells; 1 nM CNL001, second column) was −12.153% and the “YFP fluorescence quenching using TC-5619/Bradanicline” value (Lenti-X 293T cells; 1 nM brd) was −7.894%. For the same molecule, the “YFP fluorescence quenching using TC-5619/Bradanicline” value (Lenti-X 293T cells; 3 nM brd) was −11.812%, the “YFP fluorescence quenching using CNL001” value (Lenti-X 293T cells; 10 nM CNL001, first column) was −10.462% and the “YFP fluorescence quenching using CNL001” value (Lenti-X 293T cells; 10 nM CNL001, second column) was −4.735%. For the same molecule, the “YFP fluorescence quenching using TC-5619/Bradanicline” value (Lenti-X 293T cells; 10 nM brd) was 36.211%, the “YFP fluorescence quenching using TC-5619/Bradanicline” value (Lenti-X 293T cells; 30 nM brd) was 40.624% and the “YFP fluorescence quenching using CNL001” value (Lenti-X 293T cells; 50 nM CNL001, first column) was −8.617%. The “YFP fluorescence quenching using CNL001” value (Lenti-X 293T cells; 50 nM CNL001, second column) was −1.606%, the “YFP fluorescence quenching using ABT-126” value (Lenti-X 293T cells; 50 nM abt) was −20.96% and the “YFP fluorescence quenching using CNL001” value (Lenti-X 293T cells; 100 nM CNL001, first column) was −1.243%. For the same molecule, the “YFP fluorescence quenching using CNL001” value (Lenti-X 293T cells; 100 nM CNL001, second column) was 1.838%, the “YFP fluorescence quenching using ABT-126” value (Lenti-X 293T cells; 100 nM abt) was −21.95% and the “YFP fluorescence quenching using TC-5619/Bradanicline” value (Lenti-X 293T cells; 100 nM brd) was 65.869%. The “YFP fluorescence quenching using ABT-126” value (Lenti-X 293T cells; 300 nM abt) was −10.96%, the “YFP fluorescence quenching using TC-5619/Bradanicline” value (Lenti-X 293T cells; 300 nM brd) was 59.661% and the “YFP fluorescence quenching using CNL001” value (Lenti-X 293T cells; 1 uM CNL001, first column) was −0.567%. The “YFP fluorescence quenching using CNL001” value (Lenti-X 293T cells; 1 uM CNL001, second column) was 4.663%, the “YFP fluorescence quenching using ABT-126” value (Lenti-X 293T cells; 1 uM abt) was 10.79% and the “percent quench of YFP fluorescence, 30 nM TC-6683” value (Lenti-X 293T cells) was −19.889%. For the same molecule, the “percent quench of YFP fluorescence, 300 nM TC-6683” value (Lenti-X 293T cells) was −22.443%, the “percent quench of YFP fluorescence, 3 uM TC-6683” value (Lenti-X 293T cells) was −12.623% and the “percent quench of YFP fluorescence, 30 uM TC-6683” value (Lenti-X 293T cells) was −10.728%. The “percent quench of YFP fluorescence, 100 uM TC-6683” value (Lenti-X 293T cells) was −10.959%, the “percent quench of YFP fluorescence, 100 uM ach” value (Lenti-X 293T cells) was −20.55% and the “percent quench of YFP fluorescence, 300 uM ach” value (Lenti-X 293T cells) was −19.32%. The “percent quench of YFP fluorescence, 500 uM ach” value (Lenti-X 293T cells) was −19.75%, the “percent quench of YFP fluorescence, 1 mM ach” value (Lenti-X 293T cells) was −14.08% and the “percent quench of YFP fluorescence, 3 mM ach” value (Lenti-X 293T cells) was 14.07%. For the same molecule, the “percent quench of YFP fluorescence, 10 mM ach” value (Lenti-X 293T cells) was 25.7%, the “Rheobase Shift; Rat DRG Neurons, +TC-5619 @ EC90” value (rat DRG neurons) was 632 ± 43 pA and the “Rheobase Shift; Rat DRG Neurons, Baseline” value (rat DRG neurons) was 114 ± 12 pA.
